Measurements as given in paper PMC8230603, “Rad52 Oligomeric N-Terminal Domain Stabilizes Rad51 Nucleoprotein Filaments and Contributes to Their Protection against Srs2”.

Target: Rad52-FLAG (Saccharomyces cerevisiae, UniProt P06778 1-471)
Experiment: EMSA; 5 mM MgCl2; 10 mM Tris-HCl pH 8, 5 mM MgCl2, 100 mM NaCl, 37 °C, 10 min; 0.27 µM Cy5-DNA (nt per Fig 6 legend); 8% native PAGE
Details: protein: recombinant; tags: FLAG; chain copies: 10; label: 5'-Cy5 on strand 1; blunt

Chain of Rad52-FLAG (P06778 whole entry): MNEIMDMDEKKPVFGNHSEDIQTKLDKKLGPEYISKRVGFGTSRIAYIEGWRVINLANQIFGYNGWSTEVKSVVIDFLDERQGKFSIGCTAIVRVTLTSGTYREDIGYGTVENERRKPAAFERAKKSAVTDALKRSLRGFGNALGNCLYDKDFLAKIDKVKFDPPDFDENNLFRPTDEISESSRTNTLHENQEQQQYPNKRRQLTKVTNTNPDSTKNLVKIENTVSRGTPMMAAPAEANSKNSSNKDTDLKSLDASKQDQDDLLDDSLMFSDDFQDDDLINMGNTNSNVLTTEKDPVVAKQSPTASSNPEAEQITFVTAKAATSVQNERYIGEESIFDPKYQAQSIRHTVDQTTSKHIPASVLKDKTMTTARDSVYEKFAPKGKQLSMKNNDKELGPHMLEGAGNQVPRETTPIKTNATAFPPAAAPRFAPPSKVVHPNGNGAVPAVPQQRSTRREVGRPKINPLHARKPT

B1: XV2 dsDNA (dsDNA)
DNA 1: TGGGTGAACCTGCAGGTGGGCAAAGATGTCCTAGCAATGTAATCGTCAAGCTTTATGCCGTT
DNA 2: AACGGCATAAAGCTTGACGATTACATTGCTAGGACATCTTTGCCCACCTGCAGGTTCACCCA
  binding result: binds
